Molecular target: MAdCAM-1 (mucosal addressin cell adhesion molecule-1) (UniProt Q13477)
Assay: cell adhesion assay

UniProt Q13477, sequence (Q13477 19-382): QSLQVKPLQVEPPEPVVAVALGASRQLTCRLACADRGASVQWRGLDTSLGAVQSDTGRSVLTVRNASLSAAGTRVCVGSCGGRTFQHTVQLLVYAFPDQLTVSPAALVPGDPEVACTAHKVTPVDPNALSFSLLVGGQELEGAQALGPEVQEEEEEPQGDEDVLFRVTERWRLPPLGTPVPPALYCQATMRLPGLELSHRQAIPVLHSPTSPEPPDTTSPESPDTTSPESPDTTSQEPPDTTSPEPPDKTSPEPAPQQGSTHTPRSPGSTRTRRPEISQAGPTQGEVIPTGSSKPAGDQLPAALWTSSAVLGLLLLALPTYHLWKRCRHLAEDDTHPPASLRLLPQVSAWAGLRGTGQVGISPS

For “α4β7 integrin (from UniProt P13612 34-1032; P26010 20-798) (receptor)”, the relative light units of bound cells (~7.5 pmol MAdCAM-1 coated) was 1e+06 RLU.

Source: PMC5526109
